Columns and labels:
[1] = target: Paclitaxel-stabilised microtubules containing 10% X-rhodamine-labelled and 10% biotin-labelled tubulin (porcine) (UniProt P02550)
[2] = target: Paclitaxel-stabilised microtubules of unlabelled porcine brain tubulin (porcine) (UniProt P02550)
[3] = target: P. berghei kinesin-8X motor domain with C-terminal SNAPf tag, biotinylated (Pbkinesin-8X-MD-SNAP) (P. berghei)
[4] = target: P. falciparum kinesin-8X motor domain with C-terminal SNAPf tag, biotinylated (Pfkinesin-8X-MD-SNAP) (P. falciparum)

| Substance | MT depolymerization rate with AMPPNP (TIRF microscopy, 2.5 uM motor domain, 5 mM nucleotide, room temperature) [1] [nm/s] | MT depolymerization rate with ATP (TIRF microscopy, 2.5 uM motor domain, 5 mM nucleotide, room temperature) [1] [nm/s] | MT-stimulated ATPase activity, K1/2(MT) (enzyme-coupled assay, 250 nM motor domain, 0-6 uM paclitaxel-stabilised MTs, 37°C) [2] [µM] | MT-stimulated ATPase activity, Vmax (enzyme-coupled assay, 37°C) [2] [ATP/s] | MT-stimulated ATPase activity, K1/2(MT) (enzyme-coupled assay, 250 nM motor domain, 0-6 uM paclitaxel-stabilised MTs, 26°C) [2] [µM] | MT-stimulated ATPase activity, Vmax (enzyme-coupled assay, 26°C) [2] [ATP/s] | MT gliding velocity on surface-held biotinylated motor domain (TIRF microscopy, 5 mM ATP, room temperature) [3] [nm/s] | MT gliding velocity on surface-held biotinylated motor domain (TIRF microscopy, 5 mM ATP, room temperature) [4] [nm/s] |
| --- | --- | --- | --- | --- | --- | --- | --- | --- |
| P. berghei kinesin-8X motor domain (Pbkinesin-8X-MD) (domain or fragment) | 1.8 | 4.3 | 2.2 | 2.2 |  |  |  |  |
| P. falciparum kinesin-8X motor domain (Pfkinesin-8X-MD) (domain or fragment) | 0.3 | 0.5 |  |  | 1.3 | 6.5 |  |  |
| Paclitaxel-stabilised microtubules containing 10% X-rhodamine-labelled tubulin (from UniProt P02550 1-451) (complex) |  |  |  |  |  |  | 17.8 | 3.7 |

Reference: publication PMC6786531
